According to the DeepSol protein solubility set:

test: soluble on expression in E. coli; label from the status in PepcDB or PDB records

Soluble on expression in E. coli, soluble:
MGSSHHHHHHSSGLVPRGSHMASGLVPRGSHMASMPEASFFTDMLQSITDHGRQLLFSGSRNTQAAAKADLETLCEMLLSSRGEASGMALAAEILDRWGALDSEGAQKFFHMLQQKFGPDTARLDQAIEDYRTDKSSTAVIALHQAAEPRRQELLRRLNHAPNGTATLVRMRQQLLASKDRSEAYHALDADFTHLFGSWFNRGFLTLRPIDWTTPAYILEKIIQYEAVHEIAGWEELRRRLAPADRRCFAFFHPRLADEPLVFVEVALTRSVPKAIADVLDEGREQINADEATTAVFYSISNCQDGLRGISFGNFLIKQVVEDLRKDLPGLKNFVTLSPVPGFARWLAKMRTATGDRSLSEAALKTLSLLDDPNWPGSESSAADVERVLLPLAARYFLTERTPEGRPVDPVARFHLGNGARLERVNFLGDRSPKALQQAHGLMVNYLYKLDDIVANHEALAQRGEVIASPAVKSLLNQNDEGRRSGNGQQGSRAFAQLMNSTLGGGRK
MGSSHHHHHHSSGLVPRGSHMATADPYDALRRRWLGITLGTGYDPAAEPYASRLAETGERAREHRATMAPTPTSLWPGHPFDPPAGITFAYGRLWTMTEAYVQEGTGATGDPALLADILRGLDHLSATVYHPATTRYGNWWEWQIGSPRLLMDITAALYDHLGADRVAAACAAVDHFVPDAMLGAYTGTSTGANRVDLCRSVALRGVLGRAPAKIALARDALSPVFPYVTKGDGLYADGSFVQHTWVAYSGTYGQVMLDGLGRLFTLLAGSEWEVTDPGRQLVLDSVEHAYAPLIHDGLVMDTVNGRAISRGYLKSDDLHVMRSDHFHGQQLIAAMAVLAGGASNAERERWHARIKGWIERDTVTPVLTAPQFPVADLTRLHAIADAPGEAAPEPVGHHLFAAMDRAVHRRPAFTAGLAMASDRIAHYECGNGENPRGWHTGAGMLTWWANGTRADQYTDWFWPTVDWYRLPGTTVSTKRLADRAGGEWGAPKPDVRWVGGATDGEYAAVGQHLKGLGSTLEARKSWFFLDDAVVCLGAGITCADGVPVETVVDNRNLGEGGTQALVRGRHWAHLEGHGGWIVPGGALRTLREDRTGAWSDINTTSTTERRTRRWQTLWLDHGTDPAGADYVYTVMPGASRAALARRAADRHWLTVLANDDRRQAVSVPSLGLTAANFWQAGTAGPLTTTAGASVLVRRRGRTATLRVSEPPRTGEALEIVWDHPVGAVLRADETVEILATGRRLHLRVTPGVVCTTHECEVTLS
MGSSHHHHHHSSGLVPRGSHMGGGRSTETSSSSGGDGGATKKKVVVGTDAAFAPFEYMQKGKIVGFDVDLLDAVMKAAGLDYELKNIGWDPLFASLQSKEVDMGISGITITDERKQSYDFSDPYFEATQVILVKQGSPVKNALDLKGKTIGVQNATTGQEAAEKLFGKGPHIKKFETTVVAIMELLNGGVDAVITDNAVANEYVKNNPNKKLQVIEDPKNFASEYYGMIFPKNSELKAKVDEALKNVINSGKYTEIYKKWFGKEPKLDRLKQ
MGSSHHHHHHSSGLVPRGSHMRGVIRKLNDDGFGVLKGILVPFSAPGDEIIVERVERVKKRRVASQWKLVRSSPLRVGPRCKAFGKCGGCTLQHLNYDYQLEFKRKKLKRILGFEVEVVPSPKIFGHRNRIDLAITKDGIGFRERGKWWKIVDIDECPVFGKTSREAIERLKEFIEEEKISVWNIKKDEGFLRYMVLREGKFTEEVMVNFVTKEGNLPDPTNYFDFDSIYWSVNRSKSDVSYGDIERFWGKEFIRERLDDVDYLIHPNSFFQTNSYQAVNLVRKVSELVEGEKILDMYSGVGTFGIYLAKRGFNVKGFDSNEFAIEMARRNVEINNVDAEFEVASDREVSVKGFDTVIVDPPRAGLHPRLVKRLNREKPGVIVYVSCNPETFARDVKMLDYRIDEIVALDMFPHTPHVELVAKLV
MGSSHHHHHHSSGLVPRGSHMRLAGILLHVTSLPSPYGIGDLGKEAYRFLDFLKECGFSLWQVLPLNPTSLEAGNSPYSSNSLFAGNYVLIDPEELLEEDLIKERDLKRFPLGEALYEVVYEYKKELLEKAFKNFRRFELLEDFLKEHSYWLRDYALYMAIKEEEGKEWYEWDEELKRREKEALKRVLNKLKGRFYFHVFVQFVFFKQWEKLRRYARERGISIVGDLPMYPSYSSADVWTNPELFKLDGDLKPLFVAGVPPDFFSKTGQLWGNPVYNWEEHEKEGFRWWIRRVLHNLKLFDFLRLDHFRGFEAYWEVPYGEETAVNGRWVKAPGKTLFKKLLSYFPKNPFIAEDLGFITDEVRYLRETFKIPGSRVIEFAFYDKESEHLPHNVEENNVYYTSTHDLPPIRGWFENLGEESRKRLFEYLGREIKEEKVNEELIRLVLISRAKFAIIQMQDLLNLGNEARMNYPGRPFGNWRWRIKEDYTQKKEFIKKLLGIYGREV
MGSSHHHHHHSSGLVPRGSHMRVAMISMHTSPLQQPGTGDSGGMNVYILSTATELAKQGIEVDIYTRATRPSQGEIVRVAENLRVINIAAGPYEGLSKEELPTQLAAFTGGMLSFTRREKVTYDLIHSHYWLSGQVGWLLRDLWRIPLIHTAHTLAAVKNSYRDDSDTPESEARRICEQQLVDNADVLAVNTQEEMQDLMHHYDADPDRISVVSPGADVELYSPGNDRATERSRRELGIPLHTKVVAFVGRLQPFKGPQVLIKAVAALFDRDPDRNLRVIICGGPSGPNATPDTYRHMAEELGVEKRIRFLDPRPPSELVAVYRAADIVAVPSFNESFGLVAMEAQASGTPVIAARVGGLPIAVAEGETGLLVDGHSPHAWADALATLLDDDETRIRMGEDAVEHARTFSWAATAAQLSSLYNDAIANENVDGETHHG
MGSSHHHHHHSSGLVPRGSHMSKFSYLQNGKASTNGVPHANGHHQQHQNGHSNGVARNGGTATDTLPVAYQQKAATSGPFHMPRTEHVGYTYDTLQEIATYLLERTELRPKVGIICGSGLGTLAEQLTDVDSFDYETIPHFPVSTVAGHVGRLVFGYLAGVPVMCMQGRFHHYEGYPLAKCAMPVRVMHLIGCTHLIATNAAGGANPKYRVGDIMLIKDHINLMGFAGNNPLQGPNDERFGPRFFGMANTYDPKLNQQAKVIARQIGIENELREGVYTCLGGPNFETVAEVKMLSMLGVDAIGMSTVHEIITARHCGMTCFAFSLITNMCTMSYEEEEEHCHDSIVGVGKNREKTLGEFVSRIVKHIHYEAKK
MGSSHHHHHHSSGLVPRGSHMSLNILGYDVGGTKISTVVGNDSGEILSNVRMPTVKHLGKKRLIEEMITMGDAALKKAHVEKPDLIGIIFAGPVDRNRGVVIASPNIFGLSNFNIVEPIRDYYRTDTFLENDAQAAAIAERLFGSGRNVDNFVYMTLSTGIGGGIFINGKLYRGAHGMAGEIGHNVIMVNGPTCGCGRRGCLEALAGGKAIARRVIENLRAVRDSDFFSKLRPNEITAEKVFEGKKQGDMFSQLILEETIYYLAVGLVNIINTLDPELVIIGGGISKAGKDLFDPLNDAVKEEFKSMYRPFKIVPGLENGSDLAAISVPLYTEMELHGEGEKQY
MGSSHHHHHHSSGLVPRGSKKKKEMPFPNKKIELGDKLSESIRSFSTITDTEIIIGICRKNIPGWKEINESYIEVKQIFSGLTNQLFVVSIVNESMSLSLKHPRILFRIYGKHVGKFYDSKVELDVFRYLSNINIAPNIIADFPEGRIEEFIDGEPLTTKQLQLTHICVEVAKNMGSLHIINSKRADFPSRFDKEPILFKRIYLWREEAKIQVSKNNFQIDKELYSKILEEIDQLEELIMGGEKFSMERALELKLYSPAFSLVFAHNDLQENNLLQTQNNIRMIDYEYSAINFAGADIANYFCEYIYDYCSEKQPYFKFKYEDYPCEELRKLFISVYLSQTLQEQVMPSQQIVHIMTKAVEVFTLISHITWGLWSIARTPGYQPNSVEFDFTEYANTRFTHYLQKKKELIDQGILPLNSWLFNL
MGSSHHHHHHSSGLVPRGSMAGVDPFTGNSAYRSAASKTMNIYFPKKEAVTFDQANPTQILGKLKELNGTAPEEKKLTEDDLILLEKILSLICNSSSEKPTVQQLQILWKAINCPEDIVFPALDILRLSIKHPSVNENFCNEKEGAQFSSHLINLLNPKGKPANQLLALRTFCNCFVGQAGQKLMMSQRESLMSHAIELKSGSNKNIHIALATLALNYSVCFHKDHNIEGKAQCLSLISTILEVVQDLEATFRLLVALGTLISDDSNAVQLAKSLGVDSQIKKYSSVSEPAKVSECCRFILNLL
